Where a chain is given by its changes, count along the chain named. Names may count otherwise.

Five molecules from US20230192853A1 (Genentech, published 2023) can be followed below.

Assay [1] concerns the target T1, huCD8a-Fc (C-terminal hFc-tagged human CD8α receptor) (human, UniProt P01732 22-182).
T1 construct: the whole entry is named; also called CD8α-Fc; CD8α-hFc; not shown: human Fc tag at the C-terminus
Kind of assay: SPR. For orientation: SPR reads the build-up and loss of mass on a sensor chip optically.

Assay [2] has as its target T2, one-armed single chain huCD8α/huCD8β-Fc (human, UniProt P10966 22-170).
T2 construct: the whole entry is named; also called Human CD8αβ; CD8αβ-Fc; not shown: linker between CD8α and CD8β; not described; one polypeptide chain of an Fc (captured with an anti-HuIgG1 Fc kit); second Fc chain without fusion (one-armed format)
Kind of assay: affinity measurement, method not named in the sentence (SPR per paragraph 284).

Assay [3] has as its target T3, rhesus monkey CD8 in CD8-rich tissues (in vivo) (rhesus monkey, UniProt P01732 23-235 (human entry)).
T3 construct: the target was seen by PET in lymph nodes, thymus and spleen; also called rhesus CD8
Kind of assay: PET imaging in rhesus monkey. On the procedure:
Imaging experiments were performed with ¹⁸F-anti-CD8 VHH in a rhesus monkey to determine whether uptake could be detected in tissues that are normally CD8-rich. A rhesus monkey (2.5 kg) was injected with 64 micrograms ¹⁸F-anti-CD8 VHH containing a 1.2 mCi radiation dose.

Assay [4] has as its target T4, human CD8 on cells (HPBALL cells, TALL1 cells, CD8+ T cells of human whole blood and PBMCs) (human, UniProt P01732 22-234).
T4 construct: also called huCD8
Kind of assay: PET MIP of TALL1 tumor xenografted mice.

Assay [5] deals with T2, one-armed single chain huCD8α/huCD8β-Fc. Kind of assay: SPR, Biacore T200, 37°C, CD8αβ-Fc captured, VHH as analyte. The method, then: (§1) The binding affinity for each VHH variant to both human (a one-armed single chain huCD8α/huCD8β-Fc) and cynomolgus monkey (a one-armed single chain cynoCD8α/cynoCD8β-Fc) were determined by Surface Plasmon Resonance (SPR). SPR experiments were carried out on the Biacore T200 (GE Healthcare) at 37° C. using HBS-P+ (GE Healthcare) running buffer. 1.5 μg/mL of CD8αβ-Fc was captured using an anti-HuIgG1 Fc capture kit (GE Healthcare) and monomeric VHHs were added as the analyte in solution at a flow rate of 100 μL/min. The VHH was titrated using a dilution series from 100-0 nM. Sensorgrams were fit to a 1:1 Langmuir model to identify kinetic parameters, including KD, kₒₙ and koff.

The target of assay [6] is T5, one-armed single chain cynoCD8α/cynoCD8β-Fc (cynomolgus monkey).
T5 construct: the whole entry is named; also called Cyno CD8αβ; CD8αβ-Fc; not shown: linker between CD8α and CD8β; not described; one polypeptide chain of an Fc (captured with an anti-HuIgG1 Fc kit); second Fc chain without fusion (one-armed format)
T5 sequence (P01732 other isoform, or with tags, fused parts or gaps): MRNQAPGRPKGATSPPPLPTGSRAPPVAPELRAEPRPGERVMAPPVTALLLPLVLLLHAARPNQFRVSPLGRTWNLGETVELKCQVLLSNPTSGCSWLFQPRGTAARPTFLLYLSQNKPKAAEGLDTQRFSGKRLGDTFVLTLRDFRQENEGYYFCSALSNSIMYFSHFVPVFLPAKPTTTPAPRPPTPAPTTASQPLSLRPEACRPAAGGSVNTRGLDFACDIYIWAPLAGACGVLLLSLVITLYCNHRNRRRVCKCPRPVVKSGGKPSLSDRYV
Described as above. On the procedure:
as §1

T2 sequence (P10966 other isoform, or with tags, fused parts or gaps): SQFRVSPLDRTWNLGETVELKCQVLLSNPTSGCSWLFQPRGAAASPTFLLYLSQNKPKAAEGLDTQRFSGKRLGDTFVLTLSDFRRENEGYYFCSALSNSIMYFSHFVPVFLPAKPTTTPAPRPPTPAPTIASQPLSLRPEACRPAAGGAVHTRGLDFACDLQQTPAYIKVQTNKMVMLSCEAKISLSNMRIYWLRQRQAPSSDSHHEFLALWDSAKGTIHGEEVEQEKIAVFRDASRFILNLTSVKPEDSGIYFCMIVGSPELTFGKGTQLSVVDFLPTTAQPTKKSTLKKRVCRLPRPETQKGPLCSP
T3 sequence (P01732 other isoform, or with tags, fused parts or gaps limits assumed): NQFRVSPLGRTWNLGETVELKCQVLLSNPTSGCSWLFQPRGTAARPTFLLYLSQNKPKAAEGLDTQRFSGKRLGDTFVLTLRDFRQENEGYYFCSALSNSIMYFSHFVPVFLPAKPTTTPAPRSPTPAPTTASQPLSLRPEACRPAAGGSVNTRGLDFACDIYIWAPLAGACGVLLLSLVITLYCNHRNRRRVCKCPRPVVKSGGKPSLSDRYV
T4 sequence (P01732 22-234 limits assumed): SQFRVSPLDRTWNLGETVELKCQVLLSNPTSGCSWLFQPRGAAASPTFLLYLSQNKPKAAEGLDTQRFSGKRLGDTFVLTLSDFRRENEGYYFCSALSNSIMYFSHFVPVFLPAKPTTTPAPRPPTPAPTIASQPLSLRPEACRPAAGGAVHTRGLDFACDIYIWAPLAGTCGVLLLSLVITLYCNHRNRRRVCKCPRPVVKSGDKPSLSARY
T1 sequence (P01732 22-182 limits assumed): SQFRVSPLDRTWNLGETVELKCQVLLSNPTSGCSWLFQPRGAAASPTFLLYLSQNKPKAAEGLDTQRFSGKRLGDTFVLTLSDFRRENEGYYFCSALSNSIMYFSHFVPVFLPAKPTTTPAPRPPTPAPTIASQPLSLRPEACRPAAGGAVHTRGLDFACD

B1: 2C8 VHH (llama anti-CD8 VHH wt2C8) (VHH)
VHH: EVQLVESGGGLVQAGGSLRLSCAASGFTFDDYAIGWFRQAPGKGREGVLCIRIFDRHTYSADSVKGRFTISSDNAQNTVYLHMNSLKPEDTAVYYCAAGSFWACTRPEGAMDYWGKGTQVTVSS
notes: Monomeric VHH; VHHs were made both with a C-terminal His tag and tagless; also called 2C8.1-H; wild-type 2C8
Regarding B1, in assay [1], the binding result is reported as “binds”.

B2: 2C8 with the A99G and A100fD mutations (VHH, name in Kabat numbering)
VHH: B1 VHH with A103G, A110D
For B2, in assay [2], the “fold improvement of affinity against the parental clone 2C8” value is approximately 10 fold.

B3: 18F-control VHH (18F-AlF-RESCA-modified 2C8v145) (VHH)
VHH: EVQLVESGGGLVQPGGSLRLSCAASGFTFDDYAIGWFRQAPGKGREGVACIRIFDRHTYYADSVKGRFTISSDNSKNTVYLQMNSLRAEDTATYYCAAGFFSGCTRPEGDMDYFGQGTLVQVQS
modifications: RESCA chelator (Formula (I)) carrying [18F]-aluminum fluoride; site not stated
On to B3, for which the binding result in assay [3] and in assay [4] was “no binding” throughout.

B4: 2C8v144 VHH (VHH)
VHH: B3 VHH with F100S, S102W
notes: also called hu2C8v144
In assay [5], B4 showed a Kd of 49.7 pM, a koff of 0.000845 s⁻¹ and a kon of 1.7e+07 M⁻¹ s⁻¹. In assay [6], this molecule gave a Kd of 137 pM, an off-rate (koff) of 0.0019 s⁻¹ and a kon of 1.39e+07 M⁻¹ s⁻¹.

B5: 2C8v142 VHH (VHH)
VHH: B3 VHH with A33V, F100S, S102F
notes: also called hu2C8v142
Turning to B5, in assay [5], binding was characterised by a dissociation constant (Kd) of 132 pM, the koff was 0.00176 s⁻¹ and the kon was found to be 1.34e+07 M⁻¹ s⁻¹. Moreover, in assay [6], binding was characterised by a dissociation constant (Kd) of 344 pM, the koff worked out at 0.0037 s⁻¹ and the kon was 1.09e+07 M⁻¹ s⁻¹.

As usually defined, the Kd is the concentration at which binding is half-saturated. The term koff denotes a measure of how fast the partners let go of each other. As usually defined, the kon is the second-order rate constant of association.
